From paper PMC12554172, “Systematic analysis of the RGS2 degron reveals characteristics of substrate recognition by the F-box protein FBXO44” (The Journal of Biological Chemistry, 2025)

These substances were tested against T1, FBXO44^FBA (Homo sapiens, UniProt Q9H4M3) (assay: Peptide microarray (PEPperPRINT), FLAG-FBXO44^FBA binding). Conditions: Table S1; RGS2^5–16 single-residue substitution; 2 μg/ml FBXO44^FBA overnight at 4 °C, PBS 0.005% Tween pH 7.4, anti-FLAG DyLight800 fluorescence; three independent experiments with three technical replicates each.
T1 construct: we expressed and purified only this domain for all in vitro studies; 6xHis (N, cleaved yes); MBP (N, cleaved yes); made in house; host or cells: Escherichia coli Rosetta BL21 (λDE3)
T1 sequence (Q9H4M3 71-252 limits assumed): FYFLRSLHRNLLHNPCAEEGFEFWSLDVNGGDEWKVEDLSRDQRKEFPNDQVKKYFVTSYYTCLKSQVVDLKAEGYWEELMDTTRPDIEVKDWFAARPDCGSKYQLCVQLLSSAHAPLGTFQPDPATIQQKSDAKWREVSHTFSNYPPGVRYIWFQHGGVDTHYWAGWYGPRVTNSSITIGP
From the text: To do so, we utilized a custom peptide microarray (PEPperPRINT GmbH). The design of this array was twofold: (1) substitution at each position with every other natural eukaryotic amino acid; (2) truncation of the peptide from the C terminus. We assessed the binding of FLAG-FBXO44^FBA to the array utilizing fluorescence immunoreactivity corresponding to the amount of FLAG-FBXO44^FBA bound. […] Substitutions at Asp^12 were not only tolerated but also seemed to improve binding in every case (Fig. 3B). This, combined with the fact that substituting any residue in His^11–Met^16 with Arg, and in most cases with Lys, improved FBXO44^FBA binding, indicating the presence of negative charges at the binding interface.
Figure 2 Systematic mutation of the RGS2 degron alters FBXO44^FBA binding. A custom microarray (PEPperPRINT) was designed where each position of the RGS2^5–16 peptide was substituted for each natural amino acid. We also included truncated peptides on the array. This was incubated with purified FBXO44^FBA and probed with α-FLAG. A, a representative scan of a peptide microarray (top) and a truncated peptide (bottom). B, heatmap of mean fluorescence of quantified microarray scans. The scale represents the mean fluorescence in percentage points across all replicates, normalized to the signal obtained with the original residue at each position. C, heatmap of standard deviation of quantified microarray scans. The scale represents the standard deviation in percentage points across all replicates. […] Residues are color-coded based on properties: blue, positive charge; red, negative charge; orange, uncharged polar; green, hydrophobic; yellow, Cys (C); bright green, Pro (P); and black, Gly (G). […] Results of three independent experiments with three technical replicates each. For a statistical significance summary, see Table S1. FBXO44, F-box only protein 44; RGS2, regulator of G protein signaling 2.
Figure 3 Effects of RGS2^5–16 peptide residue changes on FBXO44^FBA binding. Data are presented as % FLAG immunoreactivity, as compared with the parent peptide residue. […] The original residue is marked in each graph with a vertical dotted line. Boxes extend from the 25th to 75th percentile with a line marking the median. Whiskers extend to the minimum and maximum. Results of three independent experiments with three technical replicates each. Data were analyzed by two-way ANOVA, with Tukey's post hoc test for pairwise comparison (simple effect within columns). Statistical significance is summarized in Table S1 and color-coded according to the legend. FBXO44, F-box only protein 44; RGS2, regulator of G protein signaling 2.
The microarray slide was seated into the incubation tray according to PEPperPRINT's instructions. The array well was then incubated in washing buffer (PBS) with 0.005% Tween (Sigma; P1379, pH 7.4) at room temperature for 15 min on an orbital shaker. Washing buffer was aspirated, and the array was then incubated with Rockland blocking buffer at room temperature for 30 min on an orbital shaker. Blocking buffer was then aspirated, and the array was incubated in staining buffer (washing buffer with 10% Rockland blocking buffer) at room temperature for 15 min on an orbital shaker. Staining buffer was aspirated, and purified FBXO44 FBA domain diluted to 2 μg/ml in staining buffer was added. The array was then placed on an orbital shaker overnight at 4 °C. The FBA domain solution was removed, and an array was washed three times with washing buffer. After the third array was incubated in staining buffer for 15 min at 4 °C on an orbital shaker. The array was then incubated with antibody dilution (anti-FLAG DyLight800 and anti-HA DyLight680, both diluted 1:2000 in staining buffer) for 45 min at 4° C on an orbital shaker. The array was then washed three times with washing buffer. […]

Row | Substance | Mean % difference from parent peptide (FLAG immunoreactivity) [%]
1 | D12V: array RGS2^5–16 peptide, D12 substituted by V (MFLAVQHVCRPM; UniProt P41220 5-16, looked up, variant D12V) | 40.66
2 | D12W: array RGS2^5–16 peptide, D12 substituted by W (MFLAVQHWCRPM; UniProt P41220 5-16, looked up, variant D12W) | 48.95
3 | D12Y: array RGS2^5–16 peptide, D12 substituted by Y (MFLAVQHYCRPM; UniProt P41220 5-16, looked up, variant D12Y) | 31.8
4 | H11R: array RGS2^5–16 peptide, H11 substituted by R (MFLAVQRDCRPM) | 41.19
5 | M16A: array RGS2^5–16 peptide, M16 substituted by A (MFLAVQHDCRPA; UniProt P41220 5-16, looked up, variant M16A) | -33.89
6 | M16C: array RGS2^5–16 peptide, M16 substituted by C | 30.03
7 | M16D: array RGS2^5–16 peptide, M16 substituted by D (MFLAVQHDCRPD; UniProt P41220 5-16, looked up, variant M16D) | 31.28
8 | M16G: array RGS2^5–16 peptide, M16 substituted by G (MFLAVQHDCRPG; UniProt P41220 5-16, looked up, variant M16G) | -27.86
9 | M16K: array RGS2^5–16 peptide, M16 substituted by K (MFLAVQHDCRPK; UniProt P41220 5-16, looked up, variant M16K) | 38.94
10 | M16R: array RGS2^5–16 peptide, M16 substituted by R (MFLAVQHDCRPR; UniProt P41220 5-16, looked up, variant M16R) | 101.4
11 | P15A: array RGS2^5–16 peptide, P15 substituted by A | -27.06
12 | P15C: array RGS2^5–16 peptide, P15 substituted by C | 26.71
13 | P15D: array RGS2^5–16 peptide, P15 substituted by D (MFLAVQHDCRDM; UniProt P41220 5-16, looked up, variant P15D) | 31.74
14 | P15K: array RGS2^5–16 peptide, P15 substituted by K (MFLAVQHDCRKM; UniProt P41220 5-16, looked up, variant P15K) | 52.32
15 | R14A: array RGS2^5–16 peptide, R14 substituted by A (MFLAVQHDCAPM) | -27.71
16 | R14W: array RGS2^5–16 peptide, R14 substituted by W (MFLAVQHDCWPM) | 32.54

Same assay, conditions: versus parent RGS2^5–16 peptide; 2 μg/ml FBXO44^FBA overnight at 4 °C; fluorescence

Row | Substance | FBXO44^FBA binding in peptide microarray (in words)
17 | H11R: array RGS2^5–16 peptide, H11 substituted by R (MFLAVQRDCRPM) | modest effects, with only one or two substitutions for each reaching significance
18 | R14A: array RGS2^5–16 peptide, R14 substituted by A (MFLAVQHDCAPM) | modest effects, with only one or two substitutions for each reaching significance
19 | R14W: array RGS2^5–16 peptide, R14 substituted by W (MFLAVQHDCWPM) | modest effects, with only one or two substitutions for each reaching significance
